{
  "source": "the RNAGym collection of RNA variant scans (doi:10.7554/elife.90254)",
  "parents": {"B1": {"name": "OR4K15 (parent)", "chain": "GUUAACGGUCAUAGGCCAUGGAAACUAGGAGCACCAUUUCGCUGCCAGUGAAGAAAUGAACAAAGAAAAUCUGGGCCAGGCAGGCAUCAAAAGAAAUAGUCUUGCGCUCAACCAGAAAGUCUGUAAUCAUUUUAAGGGUA"}},
  "data": [
    {"variants_of": "B1", "experiment": "self-cleavage, relative activity (ratio to wild type); higher = more cleavage; in vitro, sequencing; the parent is a self-cleaving ribozyme", "values": [
      {"variant": "G75U U102C", "self-cleavage": 0.12},
      {"variant": "G74A A94G", "self-cleavage": 0.13},
      {"variant": "G74A U108A", "self-cleavage": 0.03},
      {"variant": "U70A U102A", "self-cleavage": 0.25},
      {"variant": "U72C U97C", "self-cleavage": 0.1},
      {"variant": "C76A A94G", "self-cleavage": 0.06},
      {"variant": "G75A U108A", "self-cleavage": 0.01},
      {"variant": "A69G C112U", "self-cleavage": 0.01},
      {"variant": "U72C A125G", "self-cleavage": 0.07},
      {"variant": "C71A A117G", "self-cleavage": 0.35},
      {"variant": "A69G A125G", "self-cleavage": 0.39},
      {"variant": "U72A A82C", "self-cleavage": 0.35},
      {"variant": "A69G C121A", "self-cleavage": 2.02},
      {"variant": "A69G A140G", "self-cleavage": 1.93},
      {"variant": "U70C A118U", "self-cleavage": 0.18},
      {"variant": "A69G A89U", "self-cleavage": 1.53},
      {"variant": "U72G A90G", "self-cleavage": 0.39},
      {"variant": "U72A A110G", "self-cleavage": 0.06},
      {"variant": "U72A A110U", "self-cleavage": 0.29},
      {"variant": "A69G A118U", "self-cleavage": 0.56},
      {"variant": "U72C A90G", "self-cleavage": 0.54},
      {"variant": "A69U A91G", "self-cleavage": 1.79},
      {"variant": "A69U A125G", "self-cleavage": 0.75},
      {"variant": "G74A C81A", "self-cleavage": 0.19},
      {"variant": "U70G U103C", "self-cleavage": 1.08},
      {"variant": "C76A A111G", "self-cleavage": 0.02},
      {"variant": "A69U U120A", "self-cleavage": 1.84},
      {"variant": "A69G A90U", "self-cleavage": 1.9},
      {"variant": "G74U U120C", "self-cleavage": 0.08},
      {"variant": "G75C A140G", "self-cleavage": 0.15},
      {"variant": "G74A U102C", "self-cleavage": 0.05},
      {"variant": "U70C A92G", "self-cleavage": 0.82},
      {"variant": "U72C U127C", "self-cleavage": 0.07},
      {"variant": "U72C G93A", "self-cleavage": 0.32},
      {"variant": "A69U U131C", "self-cleavage": 1.33},
      {"variant": "A69G G79U", "self-cleavage": 0.1},
      {"variant": "U72G U120A", "self-cleavage": 0.19},
      {"variant": "U72C A126G", "self-cleavage": 0.12},
      {"variant": "U72C A126U", "self-cleavage": 0.4},
      {"variant": "U70C A78G", "self-cleavage": 0.26},
      {"variant": "U70C A82G", "self-cleavage": 0.31},
      {"variant": "G74A U100C", "self-cleavage": 0.45},
      {"variant": "C71U A89G", "self-cleavage": 0.52},
      {"variant": "A69G U132C", "self-cleavage": 1.56},
      {"variant": "U72A A94G", "self-cleavage": 0.02},
      {"variant": "U72C U131G", "self-cleavage": 0.28},
      {"variant": "U72A A96G", "self-cleavage": 0.2},
      {"variant": "A69U U127C", "self-cleavage": 1.46},
      {"variant": "C71A U120C", "self-cleavage": 0.24},
      {"variant": "U70C U127A", "self-cleavage": 0.95},
      {"variant": "U72C A82U", "self-cleavage": 0.08},
      {"variant": "U72C A82G", "self-cleavage": 0.3},
      {"variant": "G73A A86G", "self-cleavage": 0.05},
      {"variant": "G75A A117G", "self-cleavage": 0.07},
      {"variant": "U72G U87C", "self-cleavage": 0.31},
      {"variant": "A69G A96U", "self-cleavage": 1.85},
      {"variant": "G74A U130C", "self-cleavage": 0.11},
      {"variant": "G75A U100C", "self-cleavage": 0.12},
      {"variant": "U72A U122C", "self-cleavage": 0.12},
      {"variant": "U72C A117U", "self-cleavage": 0.15},
      {"variant": "G73A U122C", "self-cleavage": 0.04},
      {"variant": "A69G U131G", "self-cleavage": 0.46},
      {"variant": "A69U A110G", "self-cleavage": 0.09},
      {"variant": "G73A", "self-cleavage": 0.07},
      {"variant": "G73C", "self-cleavage": 0.23},
      {"variant": "G73U", "self-cleavage": 0.05},
      {"variant": "U72A U139C", "self-cleavage": 0.23},
      {"variant": "U72A U139A", "self-cleavage": 0.24},
      {"variant": "C71U A91G", "self-cleavage": 0.41},
      {"variant": "A69G U100G", "self-cleavage": 1.94},
      {"variant": "A69U A78G", "self-cleavage": 0.32},
      {"variant": "U70C A129G", "self-cleavage": 0.33},
      {"variant": "G73A A117U", "self-cleavage": 0.17},
      {"variant": "U72A A111G", "self-cleavage": 0.02},
      {"variant": "U70A U130C", "self-cleavage": 0.61},
      {"variant": "A69U A94U", "self-cleavage": 2.23},
      {"variant": "U72C U87C", "self-cleavage": 0.22},
      {"variant": "U72C U87A", "self-cleavage": 0.4},
      {"variant": "U72A A116G", "self-cleavage": 0.04},
      {"variant": "U72C C105U", "self-cleavage": 0.03},
      {"variant": "U72A U133C", "self-cleavage": 0.29},
      {"variant": "C71A U103C", "self-cleavage": 0.11},
      {"variant": "U72G A111U", "self-cleavage": 0.04},
      {"variant": "G74U G104A", "self-cleavage": 0.02},
      {"variant": "C76G C121U", "self-cleavage": 0.08},
      {"variant": "A69C A126G", "self-cleavage": 0.51},
      {"variant": "U72A A98G", "self-cleavage": 0.04},
      {"variant": "U70C U131A", "self-cleavage": 0.45},
      {"variant": "U70C A86G", "self-cleavage": 0.86},
      {"variant": "A69G C109A", "self-cleavage": 0.37},
      {"variant": "U72C U139C", "self-cleavage": 0.46},
      {"variant": "U72C U139A", "self-cleavage": 0.24},
      {"variant": "U72C U120A", "self-cleavage": 0.13},
      {"variant": "U72C U120C", "self-cleavage": 0.15},
      {"variant": "A69U U97A", "self-cleavage": 2.51},
      {"variant": "U72G A92G", "self-cleavage": 0.42},
      {"variant": "U70C U102C", "self-cleavage": 1.57},
      {"variant": "U72A U130C", "self-cleavage": 0.13},
      {"variant": "A69G G104C", "self-cleavage": 0.01},
      {"variant": "U70C C101U", "self-cleavage": 0.12},
      {"variant": "U70C C101G", "self-cleavage": 0.11},
      {"variant": "G73U A116G", "self-cleavage": 0.11},
      {"variant": "U72A A114U", "self-cleavage": 1.94},
      {"variant": "U72A A114C", "self-cleavage": 0.06},
      {"variant": "A69G U70C", "self-cleavage": 0.25},
      {"variant": "U72C U130C", "self-cleavage": 0.16},
      {"variant": "U72C A78U", "self-cleavage": 0.15},
      {"variant": "A69G U103C", "self-cleavage": 0.73},
      {"variant": "A69U A86G", "self-cleavage": 2.37},
      {"variant": "A69C U120C", "self-cleavage": 0.7},
      {"variant": "G73U A86C", "self-cleavage": 0.19},
      {"variant": "U70C C88U", "self-cleavage": 1.54},
      {"variant": "U72C A92G", "self-cleavage": 0.21},
      {"variant": "A69G C105G", "self-cleavage": 0.02},
      {"variant": "A69G U124C", "self-cleavage": 1.11},
      {"variant": "G73A A118U", "self-cleavage": 0.04},
      {"variant": "G74A A78G", "self-cleavage": 0.21},
      {"variant": "G74C", "self-cleavage": 0.19},
      {"variant": "G74U", "self-cleavage": 0.05},
      {"variant": "G74A", "self-cleavage": 0.12},
      {"variant": "G75A C81U", "self-cleavage": 0.21},
      {"variant": "A69G A78U", "self-cleavage": 0.33},
      {"variant": "U72C A116G", "self-cleavage": 0.07},
      {"variant": "G74A U120C", "self-cleavage": 0.1},
      {"variant": "A69G A98G", "self-cleavage": 0.49},
      {"variant": "A69G A98U", "self-cleavage": 1.35},
      {"variant": "U70C A117G", "self-cleavage": 1.21},
      {"variant": "A69G", "self-cleavage": 1.16},
      {"variant": "A69U", "self-cleavage": 1.81},
      {"variant": "A69C", "self-cleavage": 1.05},
      {"variant": "U70C A89G", "self-cleavage": 0.58},
      {"variant": "U70C A89C", "self-cleavage": 0.49},
      {"variant": "U70C A89U", "self-cleavage": 1.17},
      {"variant": "U70C A135G", "self-cleavage": 1.14},
      {"variant": "C71U A114U", "self-cleavage": 0.06},
      {"variant": "C71U A114G", "self-cleavage": 0.05},
      {"variant": "A68U U127A", "self-cleavage": 2.58},
      {"variant": "A68U U127C", "self-cleavage": 0.82},
      {"variant": "G75C U103A", "self-cleavage": 0.01},
      {"variant": "G75U A90U", "self-cleavage": 0.12},
      {"variant": "U72C U103A", "self-cleavage": 0.08},
      {"variant": "U72C U103G", "self-cleavage": 0.01},
      {"variant": "U72C U103C", "self-cleavage": 0.09},
      {"variant": "U72C C109U", "self-cleavage": 0.06},
      {"variant": "U72C C109A", "self-cleavage": 0.07},
      {"variant": "U70G A82U", "self-cleavage": 0.2},
      {"variant": "G74A U139C", "self-cleavage": 0.19},
      {"variant": "U70C U122C", "self-cleavage": 0.09},
      {"variant": "U72C U122C", "self-cleavage": 0.03},
      {"variant": "G75U A135G", "self-cleavage": 0.16},
      {"variant": "U72C A96G", "self-cleavage": 0.05},
      {"variant": "C71U U102C", "self-cleavage": 0.66},
      {"variant": "A68U U122C", "self-cleavage": 1.51},
      {"variant": "G75A C109U", "self-cleavage": 0.09},
      {"variant": "U70C U130C", "self-cleavage": 0.21},
      {"variant": "A69U U100C", "self-cleavage": 2.44},
      {"variant": "A69G U108A", "self-cleavage": 0.02},
      {"variant": "U70A C121U", "self-cleavage": 2.35},
      {"variant": "U72G A114U", "self-cleavage": 0.6},
      {"variant": "U70C A90G", "self-cleavage": 0.83},
      {"variant": "C71A A82G", "self-cleavage": 0.26},
      {"variant": "A69C A90G", "self-cleavage": 0.37},
      {"variant": "G74U U132A", "self-cleavage": 0.3},
      {"variant": "G74U U132C", "self-cleavage": 0.18},
      {"variant": "G74U C113U", "self-cleavage": 0.02},
      {"variant": "A69G U122C", "self-cleavage": 0.43},
      {"variant": "A69G U130C", "self-cleavage": 0.5}
    ]}
  ]
}
